This sample holds only a part of the variants without activity.
Tests used:
biotinyl-Val-oxazolone = experiment: self-aminoacylation, catalytic enhancement (BVO) (fold over background); higher = more active; k-Seq, kA / k0A0; sequences stand for … in GGGAAUGGAUCCACAUCUACGAAUUC…UUCACUGCAGACUUGACGAAGCUG
Summary of the method: (§1)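 Mutagenized RNA pools (0.43 μM; 21-nt variable region) were treated with 2–1250 μM of each biotinyl-aminoacyl-oxazolone. Conditions were 50 μL HEPES/NaCl/KCl/MgCl2/CaCl2 buffer, 5% acetonitrile, pH 6.9–7.0, room temperature, 90 minutes. Catalytic enhancement, the median kA relative to the uncatalyzed rate, was derived from streptavidin capture, qPCR and Illumina sequencing.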

biotinyl-Leu-oxazolone = experiment: self-aminoacylation, catalytic enhancement (BLO) (fold over background); higher = more active; k-Seq, kA / k0A0; sequences stand for … in GGGAAUGGAUCCACAUCUACGAAUUC…UUCACUGCAGACUUGACGAAGCUG
Summary of the method: as §1

biotinyl-Ile-oxazolone = experiment: self-aminoacylation, catalytic enhancement (BIO) (fold over background); higher = more active; k-Seq, kA / k0A0; sequences stand for … in GGGAAUGGAUCCACAUCUACGAAUUC…UUCACUGCAGACUUGACGAAGCUG
Summary of the method: as §1

biotinyl-Phe-oxazolone = experiment: self-aminoacylation, catalytic enhancement (BFO) (fold over background); higher = more active; k-Seq, kA / k0A0; sequences stand for … in GGGAAUGGAUCCACAUCUACGAAUUC…UUCACUGCAGACUUGACGAAGCUG
Summary of the method: as §1

biotinyl-Met-oxazolone = experiment: self-aminoacylation, catalytic enhancement (BMO) (fold over background); higher = more active; k-Seq, kA / k0A0; sequences stand for … in GGGAAUGGAUCCACAUCUACGAAUUC…UUCACUGCAGACUUGACGAAGCUG
Summary of the method: as §1

biotinyl-Trp-oxazolone = experiment: self-aminoacylation, catalytic enhancement (BWO) (fold over background); higher = more active; k-Seq, kA / k0A0; sequences stand for … in GGGAAUGGAUCCACAUCUACGAAUUC…UUCACUGCAGACUUGACGAAGCUG
Summary of the method: as §1

| Sequence | self-aminoacylation (biotinyl-Val-oxazolone) | self-aminoacylation (biotinyl-Leu-oxazolone) | self-aminoacylation (biotinyl-Ile-oxazolone) | self-aminoacylation (biotinyl-Phe-oxazolone) | self-aminoacylation (biotinyl-Met-oxazolone) | self-aminoacylation (biotinyl-Trp-oxazolone) |
| --- | --- | --- | --- | --- | --- | --- |
| AUUCAACUAGGUCAUCGGGUG [Fam2.2 aminoacylation ribozyme variant] | 3.47 | 7.19 | 3.6 | 40.6 | 5.65 | 5.46 |
| CUUCACCUUGGUCAUCGGGUG [Fam2.2 aminoacylation ribozyme variant] | 4.27 | 5.93 | 3.13 | 45.5 | 5.39 | 5.5 |
| CUACUUCGAACAAUCGGUCUG [Fam1A.1 aminoacylation ribozyme variant] | 0.684 | 0.614 | 0.623 | 0.684 | 0.618 | 0.566 |
| CAACACUUCAAGGAAUCGGUC [Fam1B.1 aminoacylation ribozyme variant] | 1.03 | 0.95 | 1.47 | 3.28 | 1.07 | 3.1 |
| CUAGUUCAAACAAUCGGGCUG [Fam1A.1 aminoacylation ribozyme variant] | 1.42 | 1.79 | 1.54 | 2.64 | 1.4 | 2.72 |
| AUUACGCUGGGCAUCGAGUGA [Fam2.1 aminoacylation ribozyme variant] | 4 | 7.76 | 3.69 | 43.1 | 7.19 | 6.96 |
| CCACACUUGAAGCAAUCGCUC [Fam1B.1 aminoacylation ribozyme variant] | 1.59 | 1.52 | 1.36 | 0.891 | 1.3 | 1.31 |
| ACUACCCUGGUUAUCGAGUGA [Fam2.1 aminoacylation ribozyme variant] | 4.43 | 8.45 | 3.67 | 33.1 | 7.03 | 7.91 |
| AUGCACCUAGGUCAUCGGGUA [Fam2.2 aminoacylation ribozyme variant] | 5.82 | 12.9 | 6.6 | 42 | 10.2 | 9.92 |
| AGUACCCUGGUAAUCGAGUGA [Fam2.1 aminoacylation ribozyme variant] | 3.23 | 8.28 | 3.21 | 47.6 | 7.78 | 8.92 |
| AAUCACCGAGGUCAUCGGGUG [Fam2.2 aminoacylation ribozyme variant] | 5.33 | 6.88 | 5.03 | 67.7 | 5.14 | 7.72 |
| CAAUUUCAAACAAUCGGUCUG [Fam1A.1 aminoacylation ribozyme variant] | 0.869 | 0.903 | 1.01 | 9.15 | 1.02 | 5.88 |
| AAGUUUGCUAAUAGUAGCAUG [Fam3.1 aminoacylation ribozyme variant] | 0.851 | 0.991 | 1.04 | 1.67 | 0.815 | 1.03 |
| AUUCUCAUAGGUCAUCGGGUG [Fam2.2 aminoacylation ribozyme variant] | 6.14 | 13.5 | 5.71 | 82.5 | 10.8 | 10.6 |
| AAGUUUGGUAAUAGUCGCAUG [Fam3.1 aminoacylation ribozyme variant] | 1.62 | 1.31 | 1.51 | 2.43 | 1.31 | 1.58 |
| AAUCACCUAGGUCAUGGGGUG [Fam2.2 aminoacylation ribozyme variant] | 3.71 | 4.25 | 3.44 | 19.4 | 3.26 | 4.91 |
| AUUACCCCGCUCAUCGAGUGA [Fam2.1 aminoacylation ribozyme variant] | 1.73 | 1.99 | 1.16 | 6.93 | 1.89 | 1.17 |
| AACUUUGCUAAUAGUCACAAG [Fam3.1 aminoacylation ribozyme variant] | 2.09 | 1.87 | 2.2 | 3.95 | 1.47 | 2.52 |
| CUAUUUCUAACAAUCGGUCUG [Fam1A.1 aminoacylation ribozyme variant] | 0.787 | 0.824 | 0.913 | 0.973 | 0.818 | 0.668 |
| AUUACCCUGGUGAUCGGGUGA [Fam2.1 aminoacylation ribozyme variant] | 4.27 | 7.07 | 3.43 | 39.5 | 5.18 | 6.86 |
| AUUCACCUAGGUAGUCGGGUG [Fam2.2 aminoacylation ribozyme variant] | 2.35 | 3.89 | 2.02 | 15.8 | 3.28 | 3.31 |
| AAGUUAGCUAAUAGUCCCAAG [Fam3.1 aminoacylation ribozyme variant] | 0.967 | 1 | 1.15 | 2.79 | 1.18 | 1.1 |
| CUUACCCUGGUCAUCGGGUGA [Fam2.1 aminoacylation ribozyme variant] | 7.68 | 17.1 | 5.25 | 93.6 | 16 | 13.9 |
| ACUCACCUAGGUCAUCGGGAG [Fam2.2 aminoacylation ribozyme variant] | 2.08 | 2.28 | 2.33 | 1.04 | 2.48 | 2.46 |
| AAUCACCUAGGUCACCGGGUG [Fam2.2 aminoacylation ribozyme variant] | 4.04 | 5.27 | 4.26 | 21.8 | 4.08 | 6.06 |
| CUACUUUAAACAAUCGGUCAG [Fam1A.1 aminoacylation ribozyme variant] | 0.655 | 0.588 | 0.617 | 0.862 | 0.716 | 0.417 |

| Sequence | self-aminoacylation (biotinyl-Val-oxazolone) | self-aminoacylation (biotinyl-Leu-oxazolone) | self-aminoacylation (biotinyl-Ile-oxazolone) | self-aminoacylation (biotinyl-Phe-oxazolone) | self-aminoacylation (biotinyl-Met-oxazolone) | self-aminoacylation (biotinyl-Trp-oxazolone) |
| --- | --- | --- | --- | --- | --- | --- |
| AUUUACCUAGGUCAUCGGGUC [Fam2.2 aminoacylation ribozyme variant] | 1.27 | 1.33 | 1.12 | 0.638 | 1.26 | 1.02 |
| AGUCACCUAGGUCGUCGGGUG [Fam2.2 aminoacylation ribozyme variant] | 2.43 | 4.29 | 2.48 | 12.9 | 2.28 | 2.71 |
| AUUUACCUAGGUCAUCGGGGG [Fam2.2 aminoacylation ribozyme variant] | 2.46 | 4.77 | 2.81 | 3.14 | 3.84 | 2.43 |
| CAACACUUCAAGCAAUCGGCC [Fam1B.1 aminoacylation ribozyme variant] | 2.58 | 2.45 | 2.57 | 4.12 | 2.64 | 3.87 |
| AAUAGCCUGGUCAUCGAGUGA [Fam2.1 aminoacylation ribozyme variant] | 4.05 | 4.95 | 4.15 | 18.6 | 4.77 | 7.5 |
| CCACACCUCAAGCAAUCGGUG [Fam1B.1 aminoacylation ribozyme variant] | 3.17 | 7.12 | 3.55 | 32.5 | 5.05 | 5.99 |
| AUUGACCUAGGUCAUCGGCUG [Fam2.2 aminoacylation ribozyme variant] | 1.7 | 1.76 | 1.6 | 1.19 | 1.58 | 1.95 |
| CUACUUCAAACAGUCGGUCUC [Fam1A.1 aminoacylation ribozyme variant] | 0.8 | 1.02 | 0.903 | 0.732 | 0.765 | 0.456 |
| CCACACUCCAAGCAACCGGUC [Fam1B.1 aminoacylation ribozyme variant] | 1.44 | 1.19 | 1.24 | 0.853 | 0.814 | 0.654 |
| AUUCACAUAGGUUAUCGGGUG [Fam2.2 aminoacylation ribozyme variant] | 3.67 | 6.69 | 3.23 | 40.2 | 5.32 | 5.37 |
| AUUACCCUGGUCAUCCAGCGA [Fam2.1 aminoacylation ribozyme variant] | 2.68 | 4.08 | 2.7 | 10.1 | 3.38 | 3.97 |
| AUUGACCUAGGUCAUCGGGUG [Fam2.2 aminoacylation ribozyme variant] | 17.4 | 58.8 | 20.6 | 337 | 43.8 | 31.1 |
| AAUACCUUGGUCAUCGAGUGA [Fam2.1 aminoacylation ribozyme variant] | 3.99 | 6.66 | 4.23 | 7.36 | 6.2 | 7.87 |
| AUUCACCUAGGUCGUUGGGUG [Fam2.2 aminoacylation ribozyme variant] | 1.2 | 1.52 | 1.35 | 3.95 | 1.42 | 1.23 |
| AUUCACCUAGGUCAGCGGGUU [Fam2.2 aminoacylation ribozyme variant] | 2.15 | 2.42 | 2.56 | 4.6 | 1.65 | 1.94 |
| AAGUUUGCUAAUACUCGUAAG [Fam3.1 aminoacylation ribozyme variant] | 0.636 | 0.559 | 0.57 | 0.706 | 0.547 | 0.557 |
| CCACACUUUUAGCAAUCGGUC [Fam1B.1 aminoacylation ribozyme variant] | 0.942 | 0.845 | 0.874 | 0.974 | 0.767 | 0.678 |
| AAGGUUGUUAAUAGUCGCAAG [Fam3.1 aminoacylation ribozyme variant] | 1.39 | 1.69 | 1.86 | 2.51 | 1.72 | 1.53 |
| CUGCUUCAAACAACCGGUCUG [Fam1A.1 aminoacylation ribozyme variant] | 0.932 | 0.793 | 0.683 | 0.915 | 0.664 | 0.921 |
| CUACUUCACACAAUAGGUCUG [Fam1A.1 aminoacylation ribozyme variant] | 0.605 | 0.469 | 0.6 | 1.01 | 0.474 | 0.394 |
| CCACACUUGAAGCAAUCGGUU [Fam1B.1 aminoacylation ribozyme variant] | 1.45 | 1.14 | 1.18 | 0.703 | 1.32 | 2.47 |
| CUACUUCAAACGAUCGGUAUG [Fam1A.1 aminoacylation ribozyme variant] | 0.675 | 0.591 | 0.544 | 0.588 | 0.585 | 0.727 |
| AUUCCGCUAGGUCAUCGGGUG [Fam2.2 aminoacylation ribozyme variant] | 8.93 | 17.7 | 8.43 | 128 | 14 | 13.6 |
| GUUACCCUGGUCAUCGACUGA [Fam2.1 aminoacylation ribozyme variant] | 1.21 | 1.45 | 1.2 | 0.937 | 1.4 | 1.01 |
| AUUCACCUCGGUCAUUGGGUG [Fam2.2 aminoacylation ribozyme variant] | 2.91 | 5.53 | 3.14 | 35.5 | 4.91 | 4.34 |

Source: the supplement of paper PMC9233669
